Laboratory results as given in US20090252717.

Key:
[1] = molecular target: KHC-584 (first 584 amino acids of rat KHC, expressed in E. coli) (UniProt Q2PQA9)
[2] = molecular target: immunoprecipitated endogenous mouse brain kinesin-1 (UniProt Q61768)
Sequence of immunoprecipitated endogenous mouse brain kinesin-1 (Q61768 whole entry, looked up): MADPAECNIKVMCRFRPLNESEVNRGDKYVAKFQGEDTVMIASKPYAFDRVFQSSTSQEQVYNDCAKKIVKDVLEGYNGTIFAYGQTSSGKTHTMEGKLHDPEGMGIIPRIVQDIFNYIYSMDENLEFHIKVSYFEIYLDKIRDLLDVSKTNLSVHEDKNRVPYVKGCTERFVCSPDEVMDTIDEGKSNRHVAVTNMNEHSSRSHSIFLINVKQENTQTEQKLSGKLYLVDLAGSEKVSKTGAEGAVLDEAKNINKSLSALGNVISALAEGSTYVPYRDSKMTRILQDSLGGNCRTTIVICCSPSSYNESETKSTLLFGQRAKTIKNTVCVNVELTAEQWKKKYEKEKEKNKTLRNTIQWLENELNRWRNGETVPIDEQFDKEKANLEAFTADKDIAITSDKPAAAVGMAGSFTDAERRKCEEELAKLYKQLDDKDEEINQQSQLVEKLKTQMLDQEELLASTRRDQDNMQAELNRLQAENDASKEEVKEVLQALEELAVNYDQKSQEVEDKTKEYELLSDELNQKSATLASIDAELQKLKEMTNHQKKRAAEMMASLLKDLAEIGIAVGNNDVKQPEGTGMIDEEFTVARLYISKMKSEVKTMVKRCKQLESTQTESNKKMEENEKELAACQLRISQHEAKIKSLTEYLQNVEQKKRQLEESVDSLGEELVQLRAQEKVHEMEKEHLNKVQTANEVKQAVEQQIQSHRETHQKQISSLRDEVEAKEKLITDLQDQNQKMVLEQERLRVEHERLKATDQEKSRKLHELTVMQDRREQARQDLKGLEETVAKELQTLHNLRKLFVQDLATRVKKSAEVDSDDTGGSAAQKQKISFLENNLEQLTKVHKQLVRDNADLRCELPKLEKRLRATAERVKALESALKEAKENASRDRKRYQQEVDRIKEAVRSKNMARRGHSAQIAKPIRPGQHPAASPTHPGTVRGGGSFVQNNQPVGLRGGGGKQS

Sequence of recombinant 6-His-tagged JNK3 kinase (JNK3/SAPK1b, Upstate Biotechnology) (P53779 whole entry): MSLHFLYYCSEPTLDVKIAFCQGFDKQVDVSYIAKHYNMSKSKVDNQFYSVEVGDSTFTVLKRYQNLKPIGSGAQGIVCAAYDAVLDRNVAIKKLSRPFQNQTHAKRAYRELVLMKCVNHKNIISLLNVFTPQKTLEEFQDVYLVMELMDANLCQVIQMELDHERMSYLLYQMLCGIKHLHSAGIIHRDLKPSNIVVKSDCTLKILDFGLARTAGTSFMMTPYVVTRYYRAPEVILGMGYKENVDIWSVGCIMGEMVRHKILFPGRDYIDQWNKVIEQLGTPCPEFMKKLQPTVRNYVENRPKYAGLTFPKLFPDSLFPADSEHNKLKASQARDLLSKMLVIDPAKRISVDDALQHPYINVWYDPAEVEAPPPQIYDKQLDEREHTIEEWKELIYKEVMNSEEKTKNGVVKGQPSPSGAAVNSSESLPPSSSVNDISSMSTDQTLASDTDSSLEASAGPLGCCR
Sequence of KHC-584 (first 584 amino acids of rat KHC, expressed in E. coli) (Q2PQA9 1-584): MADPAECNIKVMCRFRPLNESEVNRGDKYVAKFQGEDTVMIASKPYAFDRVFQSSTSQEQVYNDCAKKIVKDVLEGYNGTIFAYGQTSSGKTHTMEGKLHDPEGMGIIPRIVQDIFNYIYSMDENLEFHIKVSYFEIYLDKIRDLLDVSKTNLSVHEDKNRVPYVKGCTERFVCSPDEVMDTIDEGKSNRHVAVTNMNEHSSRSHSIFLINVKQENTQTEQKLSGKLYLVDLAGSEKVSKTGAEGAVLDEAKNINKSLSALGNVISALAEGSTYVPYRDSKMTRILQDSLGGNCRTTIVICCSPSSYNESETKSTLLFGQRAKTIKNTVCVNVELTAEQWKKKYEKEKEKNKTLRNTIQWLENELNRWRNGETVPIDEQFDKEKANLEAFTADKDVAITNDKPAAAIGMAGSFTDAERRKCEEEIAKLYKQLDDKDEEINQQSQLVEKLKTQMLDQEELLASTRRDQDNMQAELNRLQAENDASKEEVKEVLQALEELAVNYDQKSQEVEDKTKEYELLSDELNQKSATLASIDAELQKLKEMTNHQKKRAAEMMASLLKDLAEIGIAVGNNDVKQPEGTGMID

recombinant 6-His-tagged JNK3 kinase (JNK3/SAPK1b, Upstate Biotechnology)
in vitro kinase assay (32P incorporation) [1]: both recombinant KHC and immunoprecipitated endogenous mouse brain kinesin-1 KHC could be phosphorylated by recombinant JNK | in vitro phosphorylation, mass spectrometry of tryptic peptides [1]: A single tryptic peptide was identified with evidence of phosphorylation | in vitro kinase assay (32P incorporation) [2]: both recombinant KHC and immunoprecipitated endogenous mouse brain kinesin-1 KHC could be phosphorylated by recombinant JNK | in vitro phosphorylation, autoradiogram [2]: Autoradiograms showed 32P incorporation in KHCs, but not KLCs
